Source: patent publication US20250277020A1 (Boehringer Ingelheim, published 2025)
Residue numbers refer to the chain shown, from its start.

T1: Full-length human CTGF (human, UniProt P29279 27-349)
T1 construct: Corresponds to NCBI NP_001892.1 with the signal peptide omitted; purchased from R&D Systems; also called hCTGF full length; full length CTGF
T1 sequence: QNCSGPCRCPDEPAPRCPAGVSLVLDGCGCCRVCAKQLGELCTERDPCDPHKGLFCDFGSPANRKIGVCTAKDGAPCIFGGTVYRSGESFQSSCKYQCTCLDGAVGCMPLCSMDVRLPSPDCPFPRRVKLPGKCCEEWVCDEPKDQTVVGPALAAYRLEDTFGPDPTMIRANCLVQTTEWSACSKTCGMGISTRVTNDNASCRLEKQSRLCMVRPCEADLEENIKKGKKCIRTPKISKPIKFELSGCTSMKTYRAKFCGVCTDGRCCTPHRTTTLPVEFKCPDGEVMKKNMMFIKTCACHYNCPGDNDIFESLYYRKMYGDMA

B1: A33 (antibody, human IgG1, kappa, L234A L235A, V domains shown)
VH: EVQLVESGGGLVQPGGSLRLSCAASGFTFSDYYMAWVRQAPGKGLEWVANINYEGSRTDLLESLKSRFTISRDNAKNSVYLQMNSLRAEDTAVYYCARDTSRGSYFDVWGAGTTVTVSS
VL: VVMTQTPLSLSVSLGDQASISCKSSQSIVHYNENTYLEWYLQKPGQSPQLLIYKVSSRFSGVPDRFSGSGSGTDFTLKISRVEAEDLGVYYCFQGSHFPLTFGQGTKLEIKR
B2: A1 (antibody, human IgG1, kappa, L234A L235A, V domains shown)
VH: B1 VH
VL: B1 VL with N34K
B3: A2 (antibody, human IgG1, kappa, L234A L235A, V domains shown)
VH: B1 VH with E54Y
VL: B1 VL with N34K
B4: A3 (antibody, human IgG1, kappa, L234A L235A, V domains shown)
VH: B1 VH with E62A
VL: B1 VL with N34K
B5: A4 (antibody, human IgG1, kappa, L234A L235A, V domains shown)
VH: B1 VH with E54Y, E62A
VL: B1 VL with N34K
B6: A5 (antibody, human IgG1, kappa, L234A L235A)
light: VVMTQTPLSLSVSLGDQASISCKSSQSIVHYNEKTYLEWYLQKPGQSPQLLIYKVSSRFSGVPDRFSGSGSGTDFTLKISRVEAEDLGVYYCFQGSHFPLTFGQGTKLEIKRTVAAPSVFIFPPSDEQLKSGTASVVCLLNNFYPREAKVQWKVDNALQSGNSQESVTEQDSKDSTYSLSSTLTLSKADYEKHKVYACEVTHQGLSSPVTKSFNRGEC
heavy: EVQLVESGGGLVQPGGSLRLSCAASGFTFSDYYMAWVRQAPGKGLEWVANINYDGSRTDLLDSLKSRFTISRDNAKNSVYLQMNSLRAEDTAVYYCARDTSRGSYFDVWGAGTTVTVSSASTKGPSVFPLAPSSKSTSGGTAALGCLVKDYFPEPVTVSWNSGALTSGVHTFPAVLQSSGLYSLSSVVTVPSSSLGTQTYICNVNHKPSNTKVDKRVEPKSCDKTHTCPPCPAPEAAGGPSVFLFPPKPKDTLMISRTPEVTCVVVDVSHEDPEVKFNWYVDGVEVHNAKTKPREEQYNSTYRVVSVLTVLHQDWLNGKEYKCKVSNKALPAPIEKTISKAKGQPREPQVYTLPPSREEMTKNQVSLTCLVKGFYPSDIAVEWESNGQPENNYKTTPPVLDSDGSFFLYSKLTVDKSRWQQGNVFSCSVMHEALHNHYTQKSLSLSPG
B7: A6 (antibody, human IgG1, kappa, L234A L235A, V domains shown)
VH: B1 VH with E62D
VL: B1 VL with N34K
B8: A7 (antibody, human IgG1, kappa, L234A L235A, V domains shown)
VH: B1 VH with E54D
VL: B1 VL with N34K
B9: A8 (antibody, human IgG1, kappa, L234A L235A)
light: B6 light
heavy: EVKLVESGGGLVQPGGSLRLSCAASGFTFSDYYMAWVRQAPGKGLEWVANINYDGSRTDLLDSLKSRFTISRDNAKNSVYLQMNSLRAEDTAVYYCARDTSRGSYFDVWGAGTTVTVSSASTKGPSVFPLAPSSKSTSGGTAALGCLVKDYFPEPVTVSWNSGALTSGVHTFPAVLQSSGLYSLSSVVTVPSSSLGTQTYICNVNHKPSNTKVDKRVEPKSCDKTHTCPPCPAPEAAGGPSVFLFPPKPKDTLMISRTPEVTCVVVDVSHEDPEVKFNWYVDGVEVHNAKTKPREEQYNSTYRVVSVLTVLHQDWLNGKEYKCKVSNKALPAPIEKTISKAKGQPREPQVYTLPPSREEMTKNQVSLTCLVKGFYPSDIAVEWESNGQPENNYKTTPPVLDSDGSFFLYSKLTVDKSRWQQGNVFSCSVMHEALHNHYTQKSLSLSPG
B10: A9 (antibody, human IgG1, kappa, L234A L235A)
light: B6 light with F59A
heavy: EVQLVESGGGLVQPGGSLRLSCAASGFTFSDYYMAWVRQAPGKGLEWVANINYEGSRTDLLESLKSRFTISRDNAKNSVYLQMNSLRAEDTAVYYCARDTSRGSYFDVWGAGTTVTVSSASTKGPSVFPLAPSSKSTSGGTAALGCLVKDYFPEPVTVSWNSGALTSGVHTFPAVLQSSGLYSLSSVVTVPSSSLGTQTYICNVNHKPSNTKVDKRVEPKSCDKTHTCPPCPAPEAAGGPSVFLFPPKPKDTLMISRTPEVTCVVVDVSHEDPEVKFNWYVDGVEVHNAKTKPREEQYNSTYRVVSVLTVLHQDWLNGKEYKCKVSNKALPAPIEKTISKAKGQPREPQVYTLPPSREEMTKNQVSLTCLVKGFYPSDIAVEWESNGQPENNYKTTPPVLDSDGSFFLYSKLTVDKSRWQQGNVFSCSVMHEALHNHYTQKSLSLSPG
B11: A10 (antibody, human IgG1, kappa, L234A L235A)
light: B6 light with F59A
heavy: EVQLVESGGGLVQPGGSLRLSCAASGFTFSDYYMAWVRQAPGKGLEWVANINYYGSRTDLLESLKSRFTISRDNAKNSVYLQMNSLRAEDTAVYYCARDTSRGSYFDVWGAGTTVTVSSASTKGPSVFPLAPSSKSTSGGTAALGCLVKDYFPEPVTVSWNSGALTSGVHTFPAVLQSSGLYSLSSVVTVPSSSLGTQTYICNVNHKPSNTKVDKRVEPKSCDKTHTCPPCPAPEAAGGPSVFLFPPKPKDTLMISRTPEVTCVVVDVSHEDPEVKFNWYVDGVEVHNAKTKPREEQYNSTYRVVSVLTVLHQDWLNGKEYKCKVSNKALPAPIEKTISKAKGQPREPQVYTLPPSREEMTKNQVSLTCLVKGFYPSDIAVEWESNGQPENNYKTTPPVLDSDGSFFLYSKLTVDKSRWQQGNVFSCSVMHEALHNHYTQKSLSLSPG
B12: A11 (antibody, human IgG1, kappa, L234A L235A)
light: B6 light with F59A
heavy: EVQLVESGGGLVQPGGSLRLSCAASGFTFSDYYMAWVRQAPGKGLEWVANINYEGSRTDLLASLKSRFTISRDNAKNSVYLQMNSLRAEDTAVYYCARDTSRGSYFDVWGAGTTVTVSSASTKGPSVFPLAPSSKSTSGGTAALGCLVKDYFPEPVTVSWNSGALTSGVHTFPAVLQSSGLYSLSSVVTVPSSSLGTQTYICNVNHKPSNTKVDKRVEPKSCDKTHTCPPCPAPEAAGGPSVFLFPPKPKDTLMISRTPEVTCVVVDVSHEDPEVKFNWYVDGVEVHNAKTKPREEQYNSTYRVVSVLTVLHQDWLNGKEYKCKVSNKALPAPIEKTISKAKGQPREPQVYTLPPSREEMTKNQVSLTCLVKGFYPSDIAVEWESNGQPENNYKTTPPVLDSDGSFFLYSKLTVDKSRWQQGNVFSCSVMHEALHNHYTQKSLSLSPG
B13: A12 (antibody, human IgG1, kappa, L234A L235A)
light: B6 light with F59A
heavy: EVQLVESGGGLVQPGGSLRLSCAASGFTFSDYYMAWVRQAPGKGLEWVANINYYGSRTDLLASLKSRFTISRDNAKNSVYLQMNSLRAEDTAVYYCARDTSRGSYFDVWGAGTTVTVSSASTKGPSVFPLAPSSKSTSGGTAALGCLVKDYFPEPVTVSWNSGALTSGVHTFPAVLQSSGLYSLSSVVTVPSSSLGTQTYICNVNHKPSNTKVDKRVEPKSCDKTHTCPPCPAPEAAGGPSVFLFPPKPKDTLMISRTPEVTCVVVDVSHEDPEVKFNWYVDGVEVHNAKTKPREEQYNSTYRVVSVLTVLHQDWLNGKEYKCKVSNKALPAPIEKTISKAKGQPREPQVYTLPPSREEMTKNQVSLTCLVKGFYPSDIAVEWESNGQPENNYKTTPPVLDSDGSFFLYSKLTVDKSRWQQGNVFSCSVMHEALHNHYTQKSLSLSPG
B14: A14 (antibody, human IgG1, kappa, L234A L235A)
light: B6 light with F59A
heavy: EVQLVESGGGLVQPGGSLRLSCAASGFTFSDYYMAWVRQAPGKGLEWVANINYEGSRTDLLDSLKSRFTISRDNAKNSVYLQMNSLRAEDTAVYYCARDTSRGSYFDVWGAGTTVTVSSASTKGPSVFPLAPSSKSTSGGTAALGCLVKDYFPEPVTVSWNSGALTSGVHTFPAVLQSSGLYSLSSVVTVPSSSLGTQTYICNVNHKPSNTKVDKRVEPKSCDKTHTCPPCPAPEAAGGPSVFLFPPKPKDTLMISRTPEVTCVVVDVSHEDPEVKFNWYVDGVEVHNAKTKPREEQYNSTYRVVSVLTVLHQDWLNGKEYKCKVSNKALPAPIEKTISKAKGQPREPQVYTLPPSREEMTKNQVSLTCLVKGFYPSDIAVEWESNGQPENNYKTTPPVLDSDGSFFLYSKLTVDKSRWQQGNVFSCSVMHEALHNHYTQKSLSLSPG
B15: A15 (antibody, human IgG1, kappa, L234A L235A)
light: B6 light with F59A
heavy: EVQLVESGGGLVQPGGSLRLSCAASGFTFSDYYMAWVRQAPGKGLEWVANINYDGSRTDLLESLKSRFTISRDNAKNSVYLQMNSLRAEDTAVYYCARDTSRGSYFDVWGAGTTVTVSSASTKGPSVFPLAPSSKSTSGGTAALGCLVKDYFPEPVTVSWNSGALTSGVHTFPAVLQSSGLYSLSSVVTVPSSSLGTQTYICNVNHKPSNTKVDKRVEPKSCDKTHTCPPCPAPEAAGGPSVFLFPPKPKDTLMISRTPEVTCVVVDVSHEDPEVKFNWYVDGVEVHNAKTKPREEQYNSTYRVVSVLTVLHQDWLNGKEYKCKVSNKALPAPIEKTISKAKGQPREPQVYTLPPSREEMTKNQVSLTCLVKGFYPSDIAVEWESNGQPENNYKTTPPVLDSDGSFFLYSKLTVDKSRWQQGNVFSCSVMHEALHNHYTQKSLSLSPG
B16: A16 (antibody, human IgG1, kappa, L234A L235A)
light: B6 light with F59A
heavy: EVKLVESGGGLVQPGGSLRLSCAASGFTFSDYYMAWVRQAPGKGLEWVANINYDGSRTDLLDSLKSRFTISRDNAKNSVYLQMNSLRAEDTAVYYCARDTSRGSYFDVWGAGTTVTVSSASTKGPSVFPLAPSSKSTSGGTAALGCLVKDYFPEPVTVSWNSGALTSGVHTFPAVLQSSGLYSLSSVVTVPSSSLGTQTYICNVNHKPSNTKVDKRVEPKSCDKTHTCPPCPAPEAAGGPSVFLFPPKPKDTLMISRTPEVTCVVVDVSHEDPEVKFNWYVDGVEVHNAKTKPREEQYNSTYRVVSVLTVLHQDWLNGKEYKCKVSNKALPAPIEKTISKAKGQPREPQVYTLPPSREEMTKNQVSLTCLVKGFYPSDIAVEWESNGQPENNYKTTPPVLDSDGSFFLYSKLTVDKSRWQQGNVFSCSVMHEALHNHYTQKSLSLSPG
B17: A17 (antibody, human IgG1, kappa, L234A L235A, V domains shown)
VH: B1 VH
VL: B1 VL with E33G, N34K
B18: A18 (antibody, human IgG1, kappa, L234A L235A, V domains shown)
VH: B1 VH with E54Y
VL: B1 VL with E33G, N34K
B19: A19 (antibody, human IgG1, kappa, L234A L235A, V domains shown)
VH: B1 VH with E62A
VL: B1 VL with E33G, N34K
B20: A20 (antibody, human IgG1, kappa, L234A L235A, V domains shown)
VH: B1 VH with E54Y, E62A
VL: B1 VL with E33G, N34K
B21: A21 (antibody, human IgG1, kappa, L234A L235A)
light: B6 light with E33G
heavy: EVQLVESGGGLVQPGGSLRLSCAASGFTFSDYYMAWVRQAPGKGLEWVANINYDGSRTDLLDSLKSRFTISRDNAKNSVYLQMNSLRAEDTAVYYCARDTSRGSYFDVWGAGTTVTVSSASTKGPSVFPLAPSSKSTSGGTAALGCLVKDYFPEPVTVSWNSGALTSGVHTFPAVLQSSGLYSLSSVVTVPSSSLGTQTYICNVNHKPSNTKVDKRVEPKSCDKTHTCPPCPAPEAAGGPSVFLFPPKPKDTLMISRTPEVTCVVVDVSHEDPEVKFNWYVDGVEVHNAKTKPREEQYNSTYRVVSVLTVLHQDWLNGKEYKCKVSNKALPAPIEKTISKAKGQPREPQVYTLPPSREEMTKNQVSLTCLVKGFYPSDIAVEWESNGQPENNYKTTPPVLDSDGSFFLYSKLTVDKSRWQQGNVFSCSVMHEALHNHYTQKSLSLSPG
B22: A22 (antibody, human IgG1, kappa, L234A L235A, V domains shown)
VH: B1 VH with E62D
VL: B1 VL with E33G, N34K
B23: A23 (antibody, human IgG1, kappa, L234A L235A, V domains shown)
VH: B1 VH with E54D
VL: B1 VL with E33G, N34K
B24: A24 (antibody, human IgG1, kappa, L234A L235A)
light: B6 light with E33G
heavy: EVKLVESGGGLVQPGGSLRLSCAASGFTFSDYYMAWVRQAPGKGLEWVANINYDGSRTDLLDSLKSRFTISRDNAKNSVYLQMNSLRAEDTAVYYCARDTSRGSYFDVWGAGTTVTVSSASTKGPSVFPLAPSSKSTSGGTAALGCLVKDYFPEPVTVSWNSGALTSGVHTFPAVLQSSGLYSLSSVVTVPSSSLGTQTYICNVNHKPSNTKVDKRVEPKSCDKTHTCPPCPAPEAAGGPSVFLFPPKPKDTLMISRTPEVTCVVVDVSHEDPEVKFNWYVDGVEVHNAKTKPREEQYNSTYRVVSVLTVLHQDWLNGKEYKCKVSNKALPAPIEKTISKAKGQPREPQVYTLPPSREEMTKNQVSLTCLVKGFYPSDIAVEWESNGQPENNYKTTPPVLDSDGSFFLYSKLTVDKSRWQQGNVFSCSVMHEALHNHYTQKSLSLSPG
B25: A25 (antibody, human IgG1, kappa, L234A L235A, V domains shown)
VH: B1 VH
VL: B1 VL with E33G, N34K, F59A
B26: A34 (antibody, human IgG1, kappa, L234A L235A, V domains shown)
VH: B1 VH with E54Y
VL: B1 VL

Target: T1, Full-length human CTGF
Experiment: SPR, full length CTGF

| Binder | binding result | Kd [nM] |
| --- | --- | --- |
| B1 | no binding |  |
| B2 |  | 0.29 |
| B3 |  | 0.25 |
| B4 |  | 0.23 |
| B5 |  | 0.22 |
| B6 |  | 0.32 |
| B7 |  | 0.32 |
| B8 |  | 0.33 |
| B9 |  | 0.34 |
| B10 |  | 0.21 |
| B11 |  | 0.19 |
| B12 |  | 0.17 |
| B13 |  | 0.17 |
| B14 |  | 0.22 |
| B15 |  | 0.26 |
| B16 |  | 0.24 |
| B17 |  | 0.2 |
| B18 |  | 0.19 |
| B19 |  | 0.17 |
| B20 |  | 0.18 |
| B21 |  | 0.25 |
| B22 |  | 0.21 |
| B23 |  | 0.23 |
| B24 |  | 0.23 |
| B25 |  | 0.15 |
| B26 | no binding |  |
